What all share (experiment): fluorescence anisotropy; 10 mM MgCl2, 1 mM ATP; T4 DNA ligase reaction buffer: 50 mM Tris-HCl pH 7.5 (25°C), 1 mM ATP, 10 mM MgCl2; 750 pM-4 nM DNA; anisotropy temperature not stated
One data set deals with T1, PBCV1 DNA ligase (Paramecium bursaria chlorella virus 1, UniProt O41026 1-298).
T1 sequence: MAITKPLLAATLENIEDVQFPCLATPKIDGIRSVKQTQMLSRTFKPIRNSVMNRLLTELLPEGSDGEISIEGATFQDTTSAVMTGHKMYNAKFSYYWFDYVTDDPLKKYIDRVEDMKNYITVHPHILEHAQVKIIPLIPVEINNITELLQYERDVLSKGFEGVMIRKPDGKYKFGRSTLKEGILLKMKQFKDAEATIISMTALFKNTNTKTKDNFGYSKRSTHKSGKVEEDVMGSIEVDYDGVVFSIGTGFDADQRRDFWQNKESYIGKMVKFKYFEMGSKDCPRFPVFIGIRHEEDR
Conditions: protein: recombinant; label: 3'-FAM on one strand; blunt.

A further data set addresses T2, hLig3 ZnF (human, UniProt P49916 88-206).
T2 sequence: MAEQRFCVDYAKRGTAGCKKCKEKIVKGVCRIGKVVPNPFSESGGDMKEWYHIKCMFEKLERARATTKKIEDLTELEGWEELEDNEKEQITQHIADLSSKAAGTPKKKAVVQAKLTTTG
The settings on record: protein: recombinant; tags: His10; label: 3'-FAM on one strand; blunt.

Data set [1] has as its target T3, hLig3 (human DNA ligase III beta) (human, UniProt P49916-2 88-949).
T3 sequence: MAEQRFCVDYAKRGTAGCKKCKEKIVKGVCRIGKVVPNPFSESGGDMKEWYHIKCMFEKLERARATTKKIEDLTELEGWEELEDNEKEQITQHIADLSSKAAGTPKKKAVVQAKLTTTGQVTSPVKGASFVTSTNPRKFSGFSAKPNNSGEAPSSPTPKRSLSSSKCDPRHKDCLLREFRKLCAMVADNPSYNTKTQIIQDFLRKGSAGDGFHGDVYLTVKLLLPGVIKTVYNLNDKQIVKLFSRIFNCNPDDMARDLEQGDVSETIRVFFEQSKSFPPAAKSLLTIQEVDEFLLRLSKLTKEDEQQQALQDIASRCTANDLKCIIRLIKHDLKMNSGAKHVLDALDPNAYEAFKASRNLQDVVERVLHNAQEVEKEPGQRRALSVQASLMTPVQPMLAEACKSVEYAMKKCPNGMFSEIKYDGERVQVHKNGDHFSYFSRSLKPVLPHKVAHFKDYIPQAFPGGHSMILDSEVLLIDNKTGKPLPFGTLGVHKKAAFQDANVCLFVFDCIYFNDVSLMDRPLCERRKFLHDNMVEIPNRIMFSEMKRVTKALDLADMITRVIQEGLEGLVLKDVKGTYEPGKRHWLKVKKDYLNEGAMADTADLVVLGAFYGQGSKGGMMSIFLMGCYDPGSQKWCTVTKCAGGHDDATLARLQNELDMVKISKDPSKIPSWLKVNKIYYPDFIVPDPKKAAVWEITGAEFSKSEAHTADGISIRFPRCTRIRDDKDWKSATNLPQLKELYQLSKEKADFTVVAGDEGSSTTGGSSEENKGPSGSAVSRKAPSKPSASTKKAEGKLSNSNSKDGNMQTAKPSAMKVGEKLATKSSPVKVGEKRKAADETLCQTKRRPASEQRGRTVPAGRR
Conditions: protein: recombinant; tags: N-terminal His6; label: 3'-FAM on one strand; blunt.

The target in the next data set is T4, T4 DNA ligase (bacteriophage T4, UniProt P00970 1-487).
T4 sequence: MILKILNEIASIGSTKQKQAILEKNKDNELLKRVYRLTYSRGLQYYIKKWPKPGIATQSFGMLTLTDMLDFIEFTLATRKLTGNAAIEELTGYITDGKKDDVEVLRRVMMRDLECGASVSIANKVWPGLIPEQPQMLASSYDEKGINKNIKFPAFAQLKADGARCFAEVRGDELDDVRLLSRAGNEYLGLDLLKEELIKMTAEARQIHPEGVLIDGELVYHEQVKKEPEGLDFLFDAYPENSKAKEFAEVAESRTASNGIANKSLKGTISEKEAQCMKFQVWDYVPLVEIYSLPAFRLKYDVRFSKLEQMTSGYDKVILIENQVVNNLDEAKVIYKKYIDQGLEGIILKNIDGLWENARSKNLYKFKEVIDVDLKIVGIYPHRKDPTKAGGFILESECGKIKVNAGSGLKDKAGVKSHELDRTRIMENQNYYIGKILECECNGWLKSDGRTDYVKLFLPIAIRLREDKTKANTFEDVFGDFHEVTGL
Conditions: label: 3'-FAM on one strand; blunt.

A further data set has as its target T5, Sso7d (Sulfolobus solfataricus, UniProt P39476 2-64).
T5 sequence: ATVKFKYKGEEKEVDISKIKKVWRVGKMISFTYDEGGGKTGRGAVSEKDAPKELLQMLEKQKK
The settings on record: protein: recombinant; tags: N-terminal His6; label: 3'-FAM on one strand; blunt.

The target in the next data set is T6, T3 DNA ligase (bacteriophage T3, UniProt P07717 1-346).
T6 sequence: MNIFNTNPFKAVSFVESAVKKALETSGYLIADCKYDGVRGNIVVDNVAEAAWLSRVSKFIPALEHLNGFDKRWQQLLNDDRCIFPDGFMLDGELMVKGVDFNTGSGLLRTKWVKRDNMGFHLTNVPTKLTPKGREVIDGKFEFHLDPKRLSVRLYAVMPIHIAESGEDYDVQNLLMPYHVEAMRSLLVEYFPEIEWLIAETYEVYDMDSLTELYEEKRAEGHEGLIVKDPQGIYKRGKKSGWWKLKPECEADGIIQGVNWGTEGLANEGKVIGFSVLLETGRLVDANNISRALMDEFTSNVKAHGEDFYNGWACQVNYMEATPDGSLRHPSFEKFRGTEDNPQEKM
The settings on record: label: 3'-FAM on one strand; blunt.

The next data set addresses PBCV1-Nterm-T4NTD (bacteriophage T4 (T4NTD) / Paramecium …, UniProt P00970 1-135+O41026:1-298, internal_change). Conditions: protein: recombinant; tags: N-terminal His6; label: 3'-FAM on one strand; blunt.

B1: Anisotropy 24mer dsDNA (dsDNA)
DNA 1: GATCGTCCTTGGTGATCATGCATC
DNA 2: GATGCATGATCACCAAGGACGATC
As to B1, the Kd – broadly, a measure of binding affinity in units of concentration – with PBCV1 DNA ligase came out at 990 ± 80 nM; with hLig3 ZnF, 21 ± 1 nM; in data set [1], 3.8 ± 0.2 nM; with T4 DNA ligase, 1900 ± 100 nM; with Sso7d, 430 ± 60 nM; with T3 DNA ligase, 6400 ± 400 nM. In the data set with PBCV1-Nterm-T4NTD, the dissociation constant Kd was determined as 243 ± 39 nM.

(Values after publication PMC5746248, “Comparative analysis of the end-joining activity of several DNA ligases”.)
